The assay addresses T1, Amylin 3(a) receptor (human calcitonin receptor (CTa) with RAMP-3) (human, UniProt P30988 25-474; O60896 24-148, limits assumed).
T1 sequence (looked up) 1: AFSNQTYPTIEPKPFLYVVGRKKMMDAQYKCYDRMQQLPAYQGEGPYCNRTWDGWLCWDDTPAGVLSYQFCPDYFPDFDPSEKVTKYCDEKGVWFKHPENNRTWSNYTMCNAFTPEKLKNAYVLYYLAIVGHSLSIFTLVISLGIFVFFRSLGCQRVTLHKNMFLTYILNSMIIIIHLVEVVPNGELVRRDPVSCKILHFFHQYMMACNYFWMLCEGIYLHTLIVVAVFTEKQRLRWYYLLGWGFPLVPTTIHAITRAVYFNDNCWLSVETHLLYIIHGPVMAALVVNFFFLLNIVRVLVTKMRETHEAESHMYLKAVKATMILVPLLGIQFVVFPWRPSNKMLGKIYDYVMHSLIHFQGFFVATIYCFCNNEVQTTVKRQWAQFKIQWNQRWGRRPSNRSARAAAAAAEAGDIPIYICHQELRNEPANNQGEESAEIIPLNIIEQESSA
T1 sequence (looked up) 2: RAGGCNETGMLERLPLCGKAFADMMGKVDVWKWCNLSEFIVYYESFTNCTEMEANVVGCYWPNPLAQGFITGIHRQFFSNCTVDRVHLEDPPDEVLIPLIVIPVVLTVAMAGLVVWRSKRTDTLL
Nature of the assay: cell-based or functional assay.

*1 amine or outer side, *2 acyl side, *3 side chain or, on linkers, in order; H or OH if unused. Bridges are numbered along the chain shown (N, C = ends). Where no end group is shown, it is not given here. The star is where a group is joined. X2 = (S)‑4‑Carboxy‑4‑(19-carboxynonadecanoylamino)butyryl, O=C(O)CCCCCCCCCCCCCCCCCCC(=O)N[C@@H](CCC(=O)*)C(=O)O; X1 = (S)‑4‑Carboxy‑4‑(17-carboxyheptadecanoylamino)butyryl, O=C(O)CCCCCCCCCCCCCCCCC(=O)N[C@@H](CCC(=O)*)C(=O)O; C20 diacid = O=C(O)CCCCCCCCCCCCCCCCCCC(=O)*; γGlu = O=C(O)[C@H](CCC(=O)[*:2])N[*:1]; AEEA = NCCOCCOCC(=O)O

B1: N-alpha-[(S)-4-Carboxy-4-(19-carboxynonadecanoylamino)butyryl]-Arg-[Gly17]-pramlintide (peptide)
peptide: X2-RKCNTATCATQRLANFLGHSSNNFGPILPPTNVGSNTY-NH2
modifications: disulfide 3-8
SMILES: CC[C@H](C)[C@H](NC(=O)[C@@H]1CCCN1C(=O)CNC(=O)[C@H](Cc1ccccc1)NC(=O)[C@H](CC(N)=O)NC(=O)[C@H](CC(N)=O)NC(=O)[C@H](CO)NC(=O)[C@H](CO)NC(=O)[C@H](Cc1c[nH]cn1)NC(=O)CNC(=O)[C@H](CC(C)C)NC(=O)[C@H](Cc1ccccc1)NC(=O)[C@H](CC(N)=O)NC(=O)[C@H](C)NC(=O)[C@H](CC(C)C)NC(=O)[C@H](CCCNC(=N)N)NC(=O)[C@H](CCC(N)=O)NC(=O)[C@@H](NC(=O)[C@H](C)NC(=O)[C@@H]1CSSC[C@H](NC(=O)[C@H](CCCCN)NC(=O)[C@H](CCCNC(=N)N)NC(=O)CC[C@H](NC(=O)CCCCCCCCCCCCCCCCCCC(=O)O)C(=O)O)C(=O)N[C@@H](CC(N)=O)C(=O)N[C@@H]([C@@H](C)O)C(=O)N[C@@H](C)C(=O)N[C@@H]([C@@H](C)O)C(=O)N1)[C@@H](C)O)C(=O)N[C@@H](CC(C)C)C(=O)N1CCC[C@H]1C(=O)N1CCC[C@H]1C(=O)N[C@H](C(=O)N[C@@H](CC(N)=O)C(=O)N[C@H](C(=O)NCC(=O)N[C@@H](CO)C(=O)N[C@@H](CC(N)=O)C(=O)N[C@H](C(=O)N[C@@H](Cc1ccc(O)cc1)C(N)=O)[C@@H](C)O)C(C)C)[C@@H](C)O
B1: the “Potency Luciferase” value was 0.1 nM.

B2: N-alpha-[(S)-4-Carboxy-4-(19-carboxynonadecanoylamino)butyryl]-Arg-[His17]-pramlintide (peptide)
peptide: X2-RKCNTATCATQRLANFLHHSSNNFGPILPPTNVGSNTY-NH2
modifications: disulfide 3-8
SMILES: CC[C@H](C)[C@H](NC(=O)[C@@H]1CCCN1C(=O)CNC(=O)[C@H](Cc1ccccc1)NC(=O)[C@H](CC(N)=O)NC(=O)[C@H](CC(N)=O)NC(=O)[C@H](CO)NC(=O)[C@H](CO)NC(=O)[C@H](Cc1c[nH]cn1)NC(=O)[C@H](Cc1c[nH]cn1)NC(=O)[C@H](CC(C)C)NC(=O)[C@H](Cc1ccccc1)NC(=O)[C@H](CC(N)=O)NC(=O)[C@H](C)NC(=O)[C@H](CC(C)C)NC(=O)[C@H](CCCNC(=N)N)NC(=O)[C@H](CCC(N)=O)NC(=O)[C@@H](NC(=O)[C@H](C)NC(=O)[C@@H]1CSSC[C@H](NC(=O)[C@H](CCCCN)NC(=O)[C@H](CCCNC(=N)N)NC(=O)CC[C@H](NC(=O)CCCCCCCCCCCCCCCCCCC(=O)O)C(=O)O)C(=O)N[C@@H](CC(N)=O)C(=O)N[C@@H]([C@@H](C)O)C(=O)N[C@@H](C)C(=O)N[C@@H]([C@@H](C)O)C(=O)N1)[C@@H](C)O)C(=O)N[C@@H](CC(C)C)C(=O)N1CCC[C@H]1C(=O)N1CCC[C@H]1C(=O)N[C@H](C(=O)N[C@@H](CC(N)=O)C(=O)N[C@H](C(=O)NCC(=O)N[C@@H](CO)C(=O)N[C@@H](CC(N)=O)C(=O)N[C@H](C(=O)N[C@@H](Cc1ccc(O)cc1)C(N)=O)[C@@H](C)O)C(C)C)[C@@H](C)O
Take B2: the “Potency Luciferase” value stood at 0.08 nM.

B3: N-alpha-[(S)-4-Carboxy-4-(19-carboxynonadecanoylamino)butyryl]-[Ser17]-pramlintide (2-37) (peptide)
peptide: {C20 diacid-γGlu}-CNTATCATQRLANFLSHSSNNFGPILPPTNVGSNTY-NH2
modifications: disulfide 1-6
SMILES: CC[C@H](C)[C@H](NC(=O)[C@@H]1CCCN1C(=O)CNC(=O)[C@H](Cc1ccccc1)NC(=O)[C@H](CC(N)=O)NC(=O)[C@H](CC(N)=O)NC(=O)[C@H](CO)NC(=O)[C@H](CO)NC(=O)[C@H](Cc1c[nH]cn1)NC(=O)[C@H](CO)NC(=O)[C@H](CC(C)C)NC(=O)[C@H](Cc1ccccc1)NC(=O)[C@H](CC(N)=O)NC(=O)[C@H](C)NC(=O)[C@H](CC(C)C)NC(=O)[C@H](CCCNC(=N)N)NC(=O)[C@H](CCC(N)=O)NC(=O)[C@@H](NC(=O)[C@H](C)NC(=O)[C@@H]1CSSC[C@H](NC(=O)CC[C@H](NC(=O)CCCCCCCCCCCCCCCCCCC(=O)O)C(=O)O)C(=O)N[C@@H](CC(N)=O)C(=O)N[C@@H]([C@@H](C)O)C(=O)N[C@@H](C)C(=O)N[C@@H]([C@@H](C)O)C(=O)N1)[C@@H](C)O)C(=O)N[C@@H](CC(C)C)C(=O)N1CCC[C@H]1C(=O)N1CCC[C@H]1C(=O)N[C@H](C(=O)N[C@@H](CC(N)=O)C(=O)N[C@H](C(=O)NCC(=O)N[C@@H](CO)C(=O)N[C@@H](CC(N)=O)C(=O)N[C@H](C(=O)N[C@@H](Cc1ccc(O)cc1)C(N)=O)[C@@H](C)O)C(C)C)[C@@H](C)O
For the molecule B3, the “Potency Luciferase” value came out at 0.1 nM. Then X1-CNTATCATQRLANFLHHSSNNFGPILPPTNVGSNTY-NH2 (disulfide 1-6) [N-alpha-[(S)-4-Carboxy-4-(17-carboxyheptadecanoylamino)butyryl]-[His17]-pramlintide (2-37)], with 0.08 nM.

B4: N-alpha-[(S)-4-Carboxy-4-(19-carboxynonadecanoylamino)butyryl]-[Ala17]-pramlintide (2-37) (peptide)
peptide: CNTATCATQRLANFLAHSSNNFGPILPPTNVGSNTY-NH2
modifications: disulfide 1-6; not fully specified (N-terminus); printed as N-alpha-[(S)-4-Carboxy-4-(19-carboxynonadecanoylamino)butyryl]-[Ala17]-pramlintide (2-37)
As for B4, the “Potency Luciferase” value was 0.1 nM.

B5: N-alpha-[(S)-4-Carboxy-4-(19-carboxynonadecanoylamino)butyryl]-[Gly17]-pramlintide (2-37) (peptide)
peptide: {C20 diacid-γGlu}-CNTATCATQRLANFLGHSSNNFGPILPPTNVGSNTY-NH2
modifications: disulfide 1-6
SMILES: CC[C@H](C)[C@H](NC(=O)[C@@H]1CCCN1C(=O)CNC(=O)[C@H](Cc1ccccc1)NC(=O)[C@H](CC(N)=O)NC(=O)[C@H](CC(N)=O)NC(=O)[C@H](CO)NC(=O)[C@H](CO)NC(=O)[C@H](Cc1c[nH]cn1)NC(=O)CNC(=O)[C@H](CC(C)C)NC(=O)[C@H](Cc1ccccc1)NC(=O)[C@H](CC(N)=O)NC(=O)[C@H](C)NC(=O)[C@H](CC(C)C)NC(=O)[C@H](CCCNC(=N)N)NC(=O)[C@H](CCC(N)=O)NC(=O)[C@@H](NC(=O)[C@H](C)NC(=O)[C@@H]1CSSC[C@H](NC(=O)CC[C@H](NC(=O)CCCCCCCCCCCCCCCCCCC(=O)O)C(=O)O)C(=O)N[C@@H](CC(N)=O)C(=O)N[C@@H]([C@@H](C)O)C(=O)N[C@@H](C)C(=O)N[C@@H]([C@@H](C)O)C(=O)N1)[C@@H](C)O)C(=O)N[C@@H](CC(C)C)C(=O)N1CCC[C@H]1C(=O)N1CCC[C@H]1C(=O)N[C@H](C(=O)N[C@@H](CC(N)=O)C(=O)N[C@H](C(=O)NCC(=O)N[C@@H](CO)C(=O)N[C@@H](CC(N)=O)C(=O)N[C@H](C(=O)N[C@@H](Cc1ccc(O)cc1)C(N)=O)[C@@H](C)O)C(C)C)[C@@H](C)O
For B5, the “Potency Luciferase” value amounted to 0.4 nM.

B6: N-alpha-[(S)-4-Carboxy-4-(19-carboxynonadecanoylamino)butyryl]-[Arg17]-pramlintide (2-37) (peptide)
peptide: {C20 diacid-γGlu}-CNTATCATQRLANFLRHSSNNFGPILPPTNVGSNTY-NH2
modifications: disulfide 1-6
SMILES: CC[C@H](C)[C@H](NC(=O)[C@@H]1CCCN1C(=O)CNC(=O)[C@H](Cc1ccccc1)NC(=O)[C@H](CC(N)=O)NC(=O)[C@H](CC(N)=O)NC(=O)[C@H](CO)NC(=O)[C@H](CO)NC(=O)[C@H](Cc1c[nH]cn1)NC(=O)[C@H](CCCNC(=N)N)NC(=O)[C@H](CC(C)C)NC(=O)[C@H](Cc1ccccc1)NC(=O)[C@H](CC(N)=O)NC(=O)[C@H](C)NC(=O)[C@H](CC(C)C)NC(=O)[C@H](CCCNC(=N)N)NC(=O)[C@H](CCC(N)=O)NC(=O)[C@@H](NC(=O)[C@H](C)NC(=O)[C@@H]1CSSC[C@H](NC(=O)CC[C@H](NC(=O)CCCCCCCCCCCCCCCCCCC(=O)O)C(=O)O)C(=O)N[C@@H](CC(N)=O)C(=O)N[C@@H]([C@@H](C)O)C(=O)N[C@@H](C)C(=O)N[C@@H]([C@@H](C)O)C(=O)N1)[C@@H](C)O)C(=O)N[C@@H](CC(C)C)C(=O)N1CCC[C@H]1C(=O)N1CCC[C@H]1C(=O)N[C@H](C(=O)N[C@@H](CC(N)=O)C(=O)N[C@H](C(=O)NCC(=O)N[C@@H](CO)C(=O)N[C@@H](CC(N)=O)C(=O)N[C@H](C(=O)N[C@@H](Cc1ccc(O)cc1)C(N)=O)[C@@H](C)O)C(C)C)[C@@H](C)O
As for B6, the “Potency Luciferase” value was determined as 0.2 nM.

B7: N-alpha-[(S)-4-Carboxy-4-(19-carboxynonadecanoylamino)butyryl]-[Pro17]-pramlintide (2-37) (peptide)
peptide: {C20 diacid-γGlu}-CNTATCATQRLANFLPHSSNNFGPILPPTNVGSNTY-NH2
modifications: disulfide 1-6
SMILES: CC[C@H](C)[C@H](NC(=O)[C@@H]1CCCN1C(=O)CNC(=O)[C@H](Cc1ccccc1)NC(=O)[C@H](CC(N)=O)NC(=O)[C@H](CC(N)=O)NC(=O)[C@H](CO)NC(=O)[C@H](CO)NC(=O)[C@H](Cc1c[nH]cn1)NC(=O)[C@@H]1CCCN1C(=O)[C@H](CC(C)C)NC(=O)[C@H](Cc1ccccc1)NC(=O)[C@H](CC(N)=O)NC(=O)[C@H](C)NC(=O)[C@H](CC(C)C)NC(=O)[C@H](CCCNC(=N)N)NC(=O)[C@H](CCC(N)=O)NC(=O)[C@@H](NC(=O)[C@H](C)NC(=O)[C@@H]1CSSC[C@H](NC(=O)CC[C@H](NC(=O)CCCCCCCCCCCCCCCCCCC(=O)O)C(=O)O)C(=O)N[C@@H](CC(N)=O)C(=O)N[C@@H]([C@@H](C)O)C(=O)N[C@@H](C)C(=O)N[C@@H]([C@@H](C)O)C(=O)N1)[C@@H](C)O)C(=O)N[C@@H](CC(C)C)C(=O)N1CCC[C@H]1C(=O)N1CCC[C@H]1C(=O)N[C@H](C(=O)N[C@@H](CC(N)=O)C(=O)N[C@H](C(=O)NCC(=O)N[C@@H](CO)C(=O)N[C@@H](CC(N)=O)C(=O)N[C@H](C(=O)N[C@@H](Cc1ccc(O)cc1)C(N)=O)[C@@H](C)O)C(C)C)[C@@H](C)O
Regarding B7, the “Potency Luciferase” value was found to be 8 nM. Then {C20 diacid-γGlu-AEEA}-CNTATCATQRLANFLHHSSNNFGPILPPTNVGSNTY-NH2 (disulfide 1-6), with 0.1 nM.

The values above are taken from US20110105394A1 (Novo Nordisk, published 2011).
